# In US20180194847A1 (SEOUL NATIONAL UNIVERSITY R AND DB FOUNDATION, published 2018):
# B1: RD-05 mouse antibody (antibody, V domains shown)
# VH: DVQLQESGPGLVKPSQSLSLTCTVTGYSITSDYAWNWIRQFPGNKLEWMGYITYSGTTSYNPSLKSRISLTRDTSKNQFFLQLNAVTTEDTATYYCARSPYYGPWYFDVWGAGTTVTVSS
# VL: DIVLTQSPASLTVSLGQRATISCKASQSVDYDGDSYLHWYQQKPGQPPKLLIYAASYLESGIPARFSGSGSGTDFTLNIHPVEEEDAATYYCQQSNEDPNTFGGGTKLEIKR
# notes: Mouse monoclonal antibody from the hybridoma, kappa light chain; also called mouse RD-05 antibody; anti-human CD154 antibody
# Target: T1, recombinant human CD154 protein (human, UniProt P29965 47-261, limits assumed)
# T1 construct: This protein was immobilised on the SPR chip; also called human CD154 antigen
# T1 sequence: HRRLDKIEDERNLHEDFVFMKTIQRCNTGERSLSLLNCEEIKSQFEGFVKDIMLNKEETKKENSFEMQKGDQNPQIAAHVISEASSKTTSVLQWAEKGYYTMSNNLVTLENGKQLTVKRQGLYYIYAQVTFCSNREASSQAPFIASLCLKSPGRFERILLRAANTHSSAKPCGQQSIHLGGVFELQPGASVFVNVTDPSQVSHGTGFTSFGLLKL
# Test: SPR (Reichert SR7500DC), CD154 immobilised on chip, antibody in flow
# Method: The binding affinity KD of each of the RD-05 mouse antibody and IgG4 and IgG4 (L115E) RD-05 chimeric antibodies, produced as described above, for human CD154 antigen, was measured using an SPR method by Woojung BSC, Inc. (Suwon, Gyeonggi-do, Korea). Specifically, 17.5 μg/ml of recombinant human CD154 protein in immobilization buffer (10 mM sodium acetate, pH 6.0) was attached to a CMDH gold chip (Cat#13206066, Reichert Technologies, Depew, N.Y., USA) at a density of 2300 RU (resonance unit; 1 RU=1 pg/mm² surface area), after which 3.125 μg/ml of bovine serum albumin was attached at a density of 650 RU. The RD-05 antibody was diluted in PBS at […], 1.25, 2.5, 5, 10, 20, 40, 80, 160, 320, 2560 and 5120 nM. […] Based on the determined values, the KD values were calculated.
binder,measurement,value
B1,Kd,37 nM
